# Measurements taken from IntAct's records for PubMed 11964151.
# B1: Galactose/lactose metabolism regulatory protein GAL80 (Saccharomyces cerevisiae), P04387 (parent)
# chain: MDYNKRSSVSTVPNAAPIRVGFVGLNAAKGWAIKTHYPAILQLSSQFQITALYSPKIETSIATIQRLKLSNATAFPTLESFASSSTIDMIVIAIQVASHYEVVMPLLEFSKNNPNLKYLFVEWALACSLDQAESIYKAAAERGVQTIISLQGRKSPYILRAKELISQGYIGDINSIEIAGNGGWYGYERPVKSPKYIYEIGNGVDLVTTTFGHTIDILQYMTSSYFSRINAMVFNNIPEQELIDERGNRLGQRVPKTVPDHLLFQGTLLNGNVPVSCSFKGGKPTKKFTKNLVIDIHGTKGDLKLEGDAGFAEISNLVLYYSGTRANDFPLANGQQAPLDPGYDAGKEIMEVYHLRNYNAIVGNIHRLYQSISDFHFNTKKIPELPSQFVMQGFDFEGFPTLMDALILHRLIESVYKSNMMGSTLNVSNISHYSL
# partner: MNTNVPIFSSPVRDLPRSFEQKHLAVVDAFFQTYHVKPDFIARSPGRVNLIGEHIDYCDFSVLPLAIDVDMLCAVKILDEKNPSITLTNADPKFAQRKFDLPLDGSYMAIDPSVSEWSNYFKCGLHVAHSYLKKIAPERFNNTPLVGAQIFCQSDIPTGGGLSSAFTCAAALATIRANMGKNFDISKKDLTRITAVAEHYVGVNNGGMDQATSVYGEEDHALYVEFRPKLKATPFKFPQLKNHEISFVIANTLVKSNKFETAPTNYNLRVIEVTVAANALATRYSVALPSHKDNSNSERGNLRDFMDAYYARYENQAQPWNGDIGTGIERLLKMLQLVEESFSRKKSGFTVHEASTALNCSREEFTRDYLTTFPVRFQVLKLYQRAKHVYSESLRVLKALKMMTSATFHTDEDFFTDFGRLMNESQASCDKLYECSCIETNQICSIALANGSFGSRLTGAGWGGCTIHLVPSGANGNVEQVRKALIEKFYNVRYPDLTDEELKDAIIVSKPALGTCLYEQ
# Variants of: B1
# Details: with gal3_yeast GAL3, P13045
row,Variant,effect of a mutation on the interaction
1,E351K,decreasing interaction strength
